From article PMC6445578

How the values were obtained:
[1] = molecular target: hERG F860A core channel (hERG ΔPAS F860A-citrine, S620T) (human) (UniProt Q12809); test: FRET or BRET
[2] = molecular target: hERG ΔPAS-citrine channel (hERG core channel), S620T (human) (UniProt Q12809); test: FRET or BRET

With “hERG PAS domain fused to cyan fluorescent protein (hERG PAS-CFP) (from UniProt Q12809 1-135) (domain or fragment)” the Ratio A – Ratio A0 (proportional to FRET efficiency) [1] was 0.09 and the Ratio A − Ratio A0 (proportional to FRET efficiency) [2] was 0.2.
